B1: Alpha-parvin (Homo sapiens), Q9NVD7 (parent)
chain: MATSPQKSPSVPKSPTPKSPPSRKKDDSFLGKLGGTLARRKKAKEVSELQEEGMNAINLPLSPIPFELDPEDTMLEENEVRTMVDPNSRSDPKLQELMKVLIDWINDVLVGERIIVKDLAEDLYDGQVLQKLFEKLESEKLNVAEVTQSEIAQKQKLQTVLEKINETLKLPPRSIKWNVDSVHAKSLVAILHLLVALSQYFRAPIRLPDHVSIQVVVVQKREGILQSRQIQEEITGNTEALSGRHERDAFDTLFDHAPDKLNVVKKTLITFVNKHLNKLNLEVTELETQFADGVYLVLLMGLLEGYFVPLHSFFLTPDSFEQKVLNVSFAFELMQDGGLEKPKPRPEDIVNCDLKSTLRVLYNLFTKYRNVE
partner: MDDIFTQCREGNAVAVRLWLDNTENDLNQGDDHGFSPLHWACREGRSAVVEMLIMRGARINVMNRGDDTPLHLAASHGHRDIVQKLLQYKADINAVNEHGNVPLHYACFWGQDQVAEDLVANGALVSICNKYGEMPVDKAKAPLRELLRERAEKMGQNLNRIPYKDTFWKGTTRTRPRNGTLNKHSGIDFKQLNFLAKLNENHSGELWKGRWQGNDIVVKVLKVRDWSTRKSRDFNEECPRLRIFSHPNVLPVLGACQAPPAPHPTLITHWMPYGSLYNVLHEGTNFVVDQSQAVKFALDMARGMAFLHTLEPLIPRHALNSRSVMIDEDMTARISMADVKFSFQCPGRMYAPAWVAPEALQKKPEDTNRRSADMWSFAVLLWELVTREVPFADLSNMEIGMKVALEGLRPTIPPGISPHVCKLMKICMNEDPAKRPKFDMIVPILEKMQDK

Variants of: B1
Conditions: with ilk_mouse Ilk

Row | Variant | effect of a mutation on the interaction
1 | MATSPQKSPSVPKSPTPKSPPSRKKDDSFLGKLGGTLARRKKAKEVSELQEEGMNAINLPLSPIPFELDPEDTMLEENEVRTMVDPNSRSDPKLQELMKVLIDWINDVLVGERIIVKDLAEDLYDGQVLQKLFEKLESEKLNVAEVTQSEIAQKQKLQTVLEKINETLKLPPRSIKWNVDSVHAKSLVAILHLLVALSQYFRAPIRLPDHVSIQVVVVQKREGILQSRQIQEEITGNTEALSGRHERDAFDTLFDHAPDKLNVVKKTLITDVNKHLNKLNLEVTELETQFADGVYLVLLMGLLEGYFVPLHSFFLTPDSFEQKVLNVSFAFELMQDGGLEKPKPRPEDIVNCDLKSTLRVLYNLFTKYRNVE [F271D] | disrupting interaction strength

Source: IntAct's records for PubMed 11331308
